Experiments:
Experiment in all cases: cell-based or functional assay
[1] = target: Helicoverpa zea (H. zea) midgut trypsin (Helicoverpa zea)
bovine trypsin (bovine) = bovine trypsin (bovine) (UniProt P00760)
[2] = target: trypsin (source not stated)

| IA = Inhibitory Activity in IUs (BAPNA hydrolysis) [1] [IU] | SA = Specific Activity in IU/mg protein (IU/mg protein) [1] | IA = Inhibitory Activity in IUs (BAPNA hydrolysis) (bovine trypsin (bovine)) [IU] | SA = Specific Activity in IU/mg protein (IU/mg protein) (bovine trypsin (bovine)) | inhibition activity after heating at 70° C. for 5 minutes [2] [IU/mg TI] | inhibition activity before heating [2] [IU/mg TI] | Substance |
| --- | --- | --- | --- | --- | --- | --- |
| 7.46 | 3.73 | 4.96 | 2.48 |  |  | Affinity purified P. macroloba trypsin inhibitor (PmTI) |
|  | 0.845 |  | 1.02 |  |  | Kunitz trypsin inhibitor (soybean) (from UniProt P01070 25-205) |
| 8.54 | 14.2 | 30.6 | 50.9 |  |  | P. macroloba small trypsin inhibitor (PmSTI) |

Further lines, the substance ahead of its results:

| Substance | IA = Inhibitory Activity in IUs (BAPNA hydrolysis) [1] [IU] | SA = Specific Activity in IU/mg protein (IU/mg protein) [1] | IA = Inhibitory Activity in IUs (BAPNA hydrolysis) (bovine trypsin (bovine)) [IU] | SA = Specific Activity in IU/mg protein (IU/mg protein) (bovine trypsin (bovine)) | inhibition activity after heating at 70° C. for 5 minutes [2] [IU/mg TI] | inhibition activity before heating [2] [IU/mg TI] |
| --- | --- | --- | --- | --- | --- | --- |
| Bowman-Birk trypsin inhibitor (soybean) (from UniProt P01055 40-110) |  | 2.1 |  | 5.03 |  |  |
| Crude P. macroloba seed extract | 0.245 | 0.079 | 0.119 | 0.038 | 3.7 | 2.2 |
| P. macroloba large trypsin inhibitor (PmLTI) | 7.86 | 3.93 | 5.57 | 2.78 |  |  |
